Data on 91 sequences can be found in the supplement of paper PMC9112550, “Optimization of the antimicrobial peptide Bac7 by deep mutational scanning” (BMC Biology, 2022).

For this data set, the system named is Escherichia coli TOP10. Nature of the data set: shrunken log2 fold change of peptide-encoding DNA abundance (4.5 h post-induction vs induction); higher = less antimicrobial activity (less host growth inhibition). To be noted: time post-induction: 4.5 h; library: site-saturation at positions 5, 18, 19, 20.
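Note: peptides expressed intracellularly from a pBAD plasmid library in pooled LB shake-flask culture, induced with 0.3% L-arabinose, DNA abundance read by NGS, three biological replicates, DESeq2 with apeglm shrinkage.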

For the sequence RRIRCRPPRLPRPRPRPREFPRP, the “shrunken log2 fold change” value is 0.339.
The same measure for RRIRMRPPRLPRPRPRPTEKPRP: 1.36; for RRIRGRPPRLPRPRPRPHRIPRP: 0.00463; for RRIRIRPPRLPRPRPRPTIWPRP: -0.157.
As for RRIRARPPRLPRPRPRPYHIPRP, the “shrunken log2 fold change” value was -0.356.
The same measure for RRIRSRPPRLPRPRPRPYCFPRP: -0.544; for RRIRQRPPRLPRPRPRPNILPRP: -0.233.
For the sequence RRIRKRPPRLPRPRPRPWYRPRP, the “shrunken log2 fold change” value came out at 0.0232.
The same measure for RRIRDRPPRLPRPRPRPSQGPRP: -0.0558; for RRIRPRPPRLPRPRPRPSMTPRP: 0.496; for RRIRNRPPRLPRPRPRPEAWPRP: -0.0397.
For RRIRQRPPRLPRPRPRPNFNPRP the value was -0.295; for RRIRWRPPRLPRPRPRPHASPRP, 0.134.
For RRIRQRPPRLPRPRPRPHQLPRP the value was 0.142; for RRIRSRPPRLPRPRPRPNEKPRP, -0.0451; for RRIRHRPPRLPRPRPRPRDDPRP, -0.0505.
As to RRIRKRPPRLPRPRPRPAPFPRP, the “shrunken log2 fold change” value is 0.659.
For RRIRDRPPRLPRPRPRPWTPPRP the value was -0.0489; for RRIRGRPPRLPRPRPRPCPPPRP, 0.284; for RRIRTRPPRLPRPRPRPSDLPRP, -0.0743.
The same measure for RRIRHRPPRLPRPRPRPYWLPRP: -0.85; for RRIRHRPPRLPRPRPRPTTVPRP: -0.0474; for RRIRQRPPRLPRPRPRPTFGPRP: 0.343.
For the sequence RRIRSRPPRLPRPRPRPNWEPRP, the “shrunken log2 fold change” value came out at 0.015.
The same measure for RRIRFRPPRLPRPRPRPILPPRP: -0.188.
For RRIRCRPPRLPRPRPRPLDRPRP the value was -0.478; for RRIRYRPPRLPRPRPRPFGMPRP, -0.00968; for RRIRVRPPRLPRPRPRPQMMPRP, -0.0693.
For RRIRARPPRLPRPRPRPPDSPRP the value was 0.212; for RRIRMRPPRLPRPRPRPHYRPRP, -0.223; for RRIRVRPPRLPRPRPRPNRLPRP, 0.0105.
RRIRSRPPRLPRPRPRPLYKPRP: the “shrunken log2 fold change” value is -0.486.
For RRIRYRPPRLPRPRPRPLRFPRP the value was -0.28; for RRIRARPPRLPRPRPRPTYCPRP, -0.119; for RRIRYRPPRLPRPRPRPVTFPRP, -0.0285.
For RRIRHRPPRLPRPRPRPRQAPRP the value was 0.495; for RRIRHRPPRLPRPRPRPGTIPRP, -0.00536; for RRIRCRPPRLPRPRPRPGLCPRP, 0.291.
The same measure for RRIRNRPPRLPRPRPRPMTLPRP: -0.337.
Consider RRIRYRPPRLPRPRPRPPQTPRP, for which the “shrunken log2 fold change” value is -0.314.
For RRIRQRPPRLPRPRPRPMGMPRP the value was 0.0187; for RRIRRRPPRLPRPRPRPMFIPRP, -0.275.
For RRIRMRPPRLPRPRPRPCQIPRP the value was -0.0194.
For RRIRVRPPRLPRPRPRPCSLPRP the value was -0.201; for RRIRQRPPRLPRPRPRPVADPRP, 0.0976.
Turning to RRIRPRPPRLPRPRPRPLWWPRP, the “shrunken log2 fold change” value was 0.649.
The same measure for RRIRIRPPRLPRPRPRPVDNPRP: -0.0726.
The same measure for RRIRIRPPRLPRPRPRPGVHPRP: 0.241; for RRIRQRPPRLPRPRPRPWMMPRP: 0.0873; for RRIRSRPPRLPRPRPRPRHNPRP: -0.324.
The same measure for RRIRPRPPRLPRPRPRPILIPRP: -0.106; for RRIRDRPPRLPRPRPRPLQNPRP: 0.338.
With RRIRHRPPRLPRPRPRPCKVPRP, the “shrunken log2 fold change” value is -0.0825.
For RRIRCRPPRLPRPRPRPMWNPRP the value was -0.195.
For RRIRDRPPRLPRPRPRPALLPRP, the “shrunken log2 fold change” value was determined as 1.02.
For RRIRKRPPRLPRPRPRPYECPRP the value was -0.341; for RRIRMRPPRLPRPRPRPIKTPRP, -0.0802.
RRIRERPPRLPRPRPRPYMNPRP: the “shrunken log2 fold change” value was -0.602.
The same measure for RRIRRRPPRLPRPRPRPYNWPRP: -0.734; for RRIRMRPPRLPRPRPRPADQPRP: -0.0145; for RRIRERPPRLPRPRPRPSESPRP: -0.577.
On to RRIRARPPRLPRPRPRPGPKPRP, for which the “shrunken log2 fold change” value was found to be 0.421.
The same measure for RRIRDRPPRLPRPRPRPCYMPRP: -0.192; for RRIRNRPPRLPRPRPRPMFTPRP: -0.211.
For RRIRWRPPRLPRPRPRPIACPRP the value was 0.0997.
For RRIRGRPPRLPRPRPRPHRRPRP, the “shrunken log2 fold change” value was found to be 0.205.
For RRIRKRPPRLPRPRPRPTEVPRP the value was 0.158; for RRIRERPPRLPRPRPRPQMMPRP, -0.0543; for RRIRQRPPRLPRPRPRPGKFPRP, -0.148.
In the case of RRIRARPPRLPRPRPRPAQHPRP, the “shrunken log2 fold change” value came to 0.326.
For RRIRIRPPRLPRPRPRPHIDPRP the value was -0.0031.
RRIRGRPPRLPRPRPRPWRKPRP: the “shrunken log2 fold change” value was determined as 0.12.
Take RRIRDRPPRLPRPRPRPYLAPRP: the “shrunken log2 fold change” value was -0.0552.
For RRIRYRPPRLPRPRPRPGKYPRP the value was -0.466.
RRIRRRPPRLPRPRPRPEGQPRP: the “shrunken log2 fold change” value amounted to 0.131.
The same measure for RRIRDRPPRLPRPRPRPLHPPRP: 0.286.
The same measure for RRIRPRPPRLPRPRPRPPQNPRP: 0.361; for RRIRQRPPRLPRPRPRPVVCPRP: 3.57.
In the case of RRIRCRPPRLPRPRPRPLTMPRP, the “shrunken log2 fold change” value is -0.262.
For RRIRRRPPRLPRPRPRPIPCPRP the value was 0.0472; for RRIRPRPPRLPRPRPRPGGQPRP, -0.0466.
For RRIRMRPPRLPRPRPRPDMMPRP the value was 0.187; for RRIRYRPPRLPRPRPRPKWHPRP, -0.358.
As to RRIRMRPPRLPRPRPRPIKEPRP, the “shrunken log2 fold change” value was -0.00194.
For RRIRRRPPRLPRPRPRPHAMPRP the value was 0.191.
As to RRIRNRPPRLPRPRPRPPHAPRP, the “shrunken log2 fold change” value was 0.22.
As to RRIRERPPRLPRPRPRPINWPRP, the “shrunken log2 fold change” value is -0.169.
The same measure for RRIRLRPPRLPRPRPRPFVDPRP: 0.00121; for RRIRRRPPRLPRPRPRPGGPPRP: 0.321; for RRIRSRPPRLPRPRPRPVCHPRP: -0.388.
The same measure for RRIRRRPPRLPRPRPRPKAGPRP: 0.319.
